According to PMC2955198 (Cell, 2010):

Target: T1, Csm1/Lrs4 complex (S. cerevisiae, UniProt P25651 1-190; Q04087 1-347)
T1 sequence (looked up) 1: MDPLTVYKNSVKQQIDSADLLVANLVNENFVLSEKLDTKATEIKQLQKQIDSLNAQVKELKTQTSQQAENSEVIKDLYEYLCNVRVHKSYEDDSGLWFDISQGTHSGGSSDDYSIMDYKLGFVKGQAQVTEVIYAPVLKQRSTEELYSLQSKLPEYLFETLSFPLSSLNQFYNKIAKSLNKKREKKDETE
T1 sequence (looked up) 2: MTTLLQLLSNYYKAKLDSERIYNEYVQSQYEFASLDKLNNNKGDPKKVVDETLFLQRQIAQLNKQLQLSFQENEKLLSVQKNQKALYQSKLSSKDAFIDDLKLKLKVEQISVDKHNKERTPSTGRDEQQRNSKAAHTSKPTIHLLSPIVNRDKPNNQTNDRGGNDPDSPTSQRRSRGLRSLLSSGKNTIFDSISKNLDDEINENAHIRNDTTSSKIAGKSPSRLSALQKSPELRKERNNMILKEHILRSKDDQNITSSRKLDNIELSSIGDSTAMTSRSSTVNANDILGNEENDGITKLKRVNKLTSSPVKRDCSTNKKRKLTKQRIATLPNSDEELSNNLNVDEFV
Assay: SEC

B1: purified four-protein MIND (Mtw1 including Nsl1, Nnf1, and Dsn1) kinetochore complex (complex, S. cerevisiae)
chain 1: MSAPTMRSTSILTEHLGYPPISLVDDIINAVNEIMYKCTAAMEKYLLSKSKIGEEDYGEEIKSGVAKLESLLENSVDKNFDKLELYVLRNVLRIPEEYLDANVFRLENQKDLVIVDENELKKSEEKLREKVNDVELAFKKNEMLLKRVTKVKRLLFTIRGFKQKLNELLKCKDDVQLQKILESLKPIDDTMTLLTDSLRKLYVDSESTSSTEEVEALLQRLKTNGKQNNKDFRTRYIDIRTNNVLRKLGLLGDKEDEKQSAKPDARTQAGDIVSIDIEEPQLDLLDDVL
chain 2: MSQGQSKKLDVTVEQLRSIYHQFHDILEEKTDLHLPKKEYDDDAVRREVQIQLQEFLLSAMTMASKSLEVVNADTVGKTVKQLIMESQEKYMEPFDLDLNEQVRKMYQEWEDETVKVAQLRQTGPAKINEVYNNSKDEYLAQLDGRIGVLQARMMQQQSADHDDSTDDADDHINWEHIKQDYVASLNELYQTQQDLPKVRYNVEKVKRLMDFLEED
chain 3: MVNSHGIRYIRLKQVFNRALDQSISKLQSWDKVSSCFPQYVNSKQGAINVANCQRQLTEFWTELCQREFKEIMEERNVEQKLNELDELILEAKERYTDRDQDEVNKGPAIDELSSKELVECHLYSQRMHAIHEIDERLAKVNEMNDQLAQELKDLETQVEVEKNEIGKMYDEYLGSHTDQPANVLLVQSLNDMVLELKENY
chain 4: MSLEPTQTVSGTPPMLHQRTHKQVYPLRMETIPILESDSKATLQSNEPTQKDEEETEYFENKQSVSNLSPDLKFKRHKNKHIQGFPTLGERLDNLQDIKKAKRVENFNSSAPIADDNHSGDATANATANATANATANVNASAMPAPYMPYYYYYHPMNAPTPAMIPYPGSPMHSIMPNSSLQPFYSQPTAAGGPDMTTPQNISSSQQLLPAPQLFPYGSFHQQQLQQPHYIQRTRERKKSIGSQRGRRLSMLASQANGGSTIISPHKDIPEEDFYTVVGNASFGKNLQIRQLFNWCLMRSLHKLELKAKNQEEEGELEHLTKKSKLESTKAETDYVDPKRLAMVIIKEFVDDLKKDHIAIDWEDEEKYEDEDEEKILDNTENYDDTELRQLFQENDDDDDDDDEVDYSEIQRSRRKFSERRKALPKEPKKLLPNSKNVENTKNLSILTSKVNAIKNEVKEWAVTLDTSRPDLEWQELTSFSSQPLEPLSDTEEPDLAIADVETKLETKVDELRYQSHILNSHSLALNEITNSKVNKLNIETMRKISSETDDDHSQVINPQQLLKGLSLSFSKKLDL
  stoichiometry N: ≤ 4 MIND complexes per Csm1/Lrs4 complex
